Data on one molecule can be found in publication PMC11074293 (2024).

The Kd is the constant that tells how readily two partners part at equilibrium.

Some targets named below: CUL3^WT-RBX1 (human, UniProt Q13618 1-768; P62877 1-108); CUL3^Δ1–24-RBX1 (human, UniProt Q13618 25-768; P62877 1-108); CUL3^Δ1–13-RBX1 (human, UniProt Q13618 14-768; P62877 1-108).
Common to all, as to assay: ITC
For orientation: ITC needs no label: the signal is the heat of the interaction.

CUL3^Δ1–13-RBX1, sequence (Q13618 14-768, stated change not applied, chain 1 of 2): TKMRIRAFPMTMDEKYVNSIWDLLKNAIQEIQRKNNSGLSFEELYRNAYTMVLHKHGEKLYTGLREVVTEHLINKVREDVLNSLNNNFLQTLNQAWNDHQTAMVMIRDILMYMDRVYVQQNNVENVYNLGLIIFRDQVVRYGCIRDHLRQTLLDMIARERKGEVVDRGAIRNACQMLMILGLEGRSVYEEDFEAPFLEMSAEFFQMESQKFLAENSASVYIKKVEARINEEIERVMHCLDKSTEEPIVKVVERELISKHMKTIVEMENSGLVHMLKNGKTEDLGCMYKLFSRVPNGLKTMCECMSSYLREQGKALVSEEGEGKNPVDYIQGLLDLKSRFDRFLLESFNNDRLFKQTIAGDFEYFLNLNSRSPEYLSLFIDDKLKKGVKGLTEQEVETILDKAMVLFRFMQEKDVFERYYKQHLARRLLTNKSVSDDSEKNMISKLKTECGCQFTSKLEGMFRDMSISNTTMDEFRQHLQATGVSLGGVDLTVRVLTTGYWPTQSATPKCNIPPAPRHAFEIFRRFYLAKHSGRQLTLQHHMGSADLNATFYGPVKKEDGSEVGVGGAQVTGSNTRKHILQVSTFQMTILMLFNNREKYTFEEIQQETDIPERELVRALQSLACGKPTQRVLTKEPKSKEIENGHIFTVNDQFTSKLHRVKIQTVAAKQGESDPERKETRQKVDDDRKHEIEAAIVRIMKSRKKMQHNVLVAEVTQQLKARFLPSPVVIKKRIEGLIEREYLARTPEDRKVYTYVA
CUL3^Δ1–13-RBX1, sequence (P62877 whole entry, stated change not applied, chain 2 of 2): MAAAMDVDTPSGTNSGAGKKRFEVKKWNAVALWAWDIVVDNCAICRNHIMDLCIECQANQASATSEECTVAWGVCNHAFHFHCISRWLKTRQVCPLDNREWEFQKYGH
CUL3^WT-RBX1, sequence (Q13618 whole entry, chain 1 of 2): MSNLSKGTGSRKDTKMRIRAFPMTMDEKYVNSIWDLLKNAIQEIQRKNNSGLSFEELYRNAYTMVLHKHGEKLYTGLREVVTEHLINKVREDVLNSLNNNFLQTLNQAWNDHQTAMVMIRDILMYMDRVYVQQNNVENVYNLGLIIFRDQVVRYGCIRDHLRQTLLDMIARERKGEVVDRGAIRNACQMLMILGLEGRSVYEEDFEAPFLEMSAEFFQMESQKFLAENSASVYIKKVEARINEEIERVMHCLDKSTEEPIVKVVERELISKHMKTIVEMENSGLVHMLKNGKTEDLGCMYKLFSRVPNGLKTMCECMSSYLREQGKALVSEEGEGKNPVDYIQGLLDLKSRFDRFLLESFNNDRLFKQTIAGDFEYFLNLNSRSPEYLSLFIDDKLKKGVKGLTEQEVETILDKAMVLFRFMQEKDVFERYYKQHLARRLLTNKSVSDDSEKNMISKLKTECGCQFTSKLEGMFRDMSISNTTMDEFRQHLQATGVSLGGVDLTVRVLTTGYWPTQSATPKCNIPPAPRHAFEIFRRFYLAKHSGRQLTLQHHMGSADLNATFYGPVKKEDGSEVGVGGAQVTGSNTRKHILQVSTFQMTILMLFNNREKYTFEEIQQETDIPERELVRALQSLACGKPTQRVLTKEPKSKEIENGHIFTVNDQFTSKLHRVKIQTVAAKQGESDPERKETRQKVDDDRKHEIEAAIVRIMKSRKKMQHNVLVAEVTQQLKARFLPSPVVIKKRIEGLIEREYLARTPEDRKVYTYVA
CUL3^WT-RBX1, sequence (P62877 whole entry, chain 2 of 2): as the sequence (P62877 whole entry, stated change not applied, chain 2 of 2) above
CUL3^Δ1–24-RBX1, sequence (Q13618 25-768, stated change not applied, chain 1 of 2): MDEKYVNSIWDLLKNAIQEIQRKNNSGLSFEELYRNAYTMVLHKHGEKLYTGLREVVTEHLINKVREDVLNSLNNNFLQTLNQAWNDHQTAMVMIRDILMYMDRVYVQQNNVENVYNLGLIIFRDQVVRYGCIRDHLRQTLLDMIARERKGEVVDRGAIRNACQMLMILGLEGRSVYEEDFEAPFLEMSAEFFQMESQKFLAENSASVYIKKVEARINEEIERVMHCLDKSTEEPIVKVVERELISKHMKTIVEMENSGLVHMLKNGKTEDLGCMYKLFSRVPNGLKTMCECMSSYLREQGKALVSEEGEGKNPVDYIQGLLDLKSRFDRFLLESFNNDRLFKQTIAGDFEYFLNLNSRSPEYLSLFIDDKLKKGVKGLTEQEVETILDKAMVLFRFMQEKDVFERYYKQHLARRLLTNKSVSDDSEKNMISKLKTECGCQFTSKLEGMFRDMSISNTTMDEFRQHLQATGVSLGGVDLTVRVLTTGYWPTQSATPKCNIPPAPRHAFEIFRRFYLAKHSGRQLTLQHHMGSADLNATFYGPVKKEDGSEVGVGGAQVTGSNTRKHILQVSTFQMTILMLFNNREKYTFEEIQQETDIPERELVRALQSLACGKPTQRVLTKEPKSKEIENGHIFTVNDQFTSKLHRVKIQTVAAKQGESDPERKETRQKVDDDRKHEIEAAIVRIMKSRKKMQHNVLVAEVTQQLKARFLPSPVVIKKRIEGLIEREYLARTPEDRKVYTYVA
CUL3^Δ1–24-RBX1, sequence (P62877 whole entry, stated change not applied, chain 2 of 2): as the sequence (P62877 whole entry, stated change not applied, chain 2 of 2) above

B1: KLHL22^1–178 (domain or fragment)
chain: MAEEQEFTQLCKLPAQPSHPHCVNNTYRSAQHSQALLRGLLALRDSGILFDVVLVVEGRHIEAHRILLAASCDYFRGMFAGGLKEMEQEEVLIHGVSYNAMCQILHFIYTSELELSLSNVQETLVAACQLQIPEIIHFCCDFLMSWVDEENILDVYRLAELFDLSRLTEQLDTYILKN
On to B1, for which the Kd was 60 nM with CUL3^WT-RBX1, 483 nM with CUL3^Δ1–24-RBX1 and 176 nM in the experiment with CUL3^Δ1–13-RBX1.
